Experimental data taken from the supplement of paper PMC10724198.
± gives the standard deviation of the averaged measurements.

How the values were obtained:
Saccharomyces cerevisiae [1] = test: protein stability index of tFT-peptide fusion (C-terminal peptide) (PSI (0-1 scale)); higher = more stable (slower turnover); conditions: genetic background: wild type; temperature: 30 C
Saccharomyces cerevisiae [2] = test: as above
Description: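 MPS profiling in S. cerevisiae of the tFT-X12 degron library: putative degron peptides plus stable controls, 12 aa, fused to the C-terminus of a sfGFP-mCherry timer. Cells are FACS-sorted into 8 mCherry/sfGFP bins and deep-sequenced. PSI runs from 0 (unstable) to 1 (stable). Backgrounds are wild type, das1Δ and doa10Δ at 30 °C, and wild type, das1Δ, cdc34-1 and cdc53-1 at 37 °C; 2-3 technical replicates each.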

[3] = genetic background: cdc34-1, temperature: 37 C
[4] = genetic background: cdc53-1, temperature: 37 C
[5] = genetic background: das1 deletion, temperature: 30 C
[6] = genetic background: das1 deletion, temperature: 37 C
[7] = genetic background: doa10 deletion, temperature: 30 C
[8] = genetic background: wild type, temperature: 30 C
[9] = genetic background: wild type, temperature: 37 C
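Further: PSI is a weighted mean of sequencing reads over stability bins, variants kept only with over 10 reads, mCherry proximal and sfGFP distal, peptide attached via GGGS linker.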

Sequence | protein stability index (Saccharomyces cerevisiae [1]) | protein stability index (Saccharomyces cerevisiae [2]; [3]) | protein stability index (Saccharomyces cerevisiae [2]; [4]) | protein stability index (Saccharomyces cerevisiae [2]; [5]) | protein stability index (Saccharomyces cerevisiae [2]; [6]) | protein stability index (Saccharomyces cerevisiae [2]; [7]) | protein stability index (Saccharomyces cerevisiae [2]; [8]) | protein stability index (Saccharomyces cerevisiae [2]; [9])
PLSDPLRVILIM | 0.443 ± 0.063 | 0.55 ± 0.016 | 0.633 ± 0.06 | 0.501 ± 0.0089 | 0.627 ± 0.014 | 0.188 ± 0.0023 | 0.22 ± 0.023 | 0.328 ± 0.017
FKFGVFDFRFLC | 0.109 ± 0.06 | 0.451 ± 0.063 | 0.686 ± 0.031 | 0.623 ± 0.011 | 0.7617 ± 0.0049 | 0.0716 ± 0.0051 | 0.0879 ± 0.036 | 0.115 ± 0.031
FASFLFFCYIIF | 0.197 ± 0.0022 | 0.124 ± 0.042 | 0.118 ± 0.0078 | 0.192 ± 0.034 | 0.2631 ± 0.00071 | 0.24 ± 0.022 | 0.154 ± 0.04 | 0.213 ± 0.018
LCFVCLWGYLGV | 0.479 ± 0.044 | 0.388 ± 0.023 | 0.471 ± 0.011 | 0.322 ± 0.034 | 0.528 ± 0.023 | 0.307 ± 0.0054 | 0.323 ± 0.022 | 0.4791 ± 0.0038
FFVYRFFSLSVC | 0.07222 ± 0.00031 | 0.146 ± 0.0021 | 0.209 ± 0.0047 | 0.13 ± 0.032 | 0.247 ± 0.0028 | 0.0301 ± 0.0028 | 0.0256 ± 0.0079 | 0.0647 ± 0.011
LYFLLGSLVFVF | 0.392 ± 0.0081 | 0.366 ± 0.0083 | 0.417 ± 0.015 | 0.273 ± 0.035 | 0.506 ± 0.014 | 0.244 ± 0.0021 | 0.275 ± 0.019 | 0.461 ± 0.031
VFWVLVSFLFYV | 0.346 ± 0.023 | 0.339 ± 0.011 | 0.406 ± 0.012 | 0.307 ± 0.028 | 0.4496 ± 0.0013 | 0.281 ± 0.014 | 0.3 ± 0.018 | 0.4059 ± 0.0036
RSPIRYPPVVLS | 0.518 ± 0.07 | 0.698 ± 0.038 | 0.753 ± 0.011 | 0.645 ± 0.021 | 0.7493 ± 0.0034 | 0.539 ± 0.021 | 0.539 ± 0.008 | 0.6895 ± 0.0015
VIAFFSVLKRYV | 0.421 ± 0.016 | 0.641 ± 0.0088 | 0.704 ± 0.011 | 0.58 ± 0.037 | 0.712 ± 0.0078 | 0.199 ± 0.0083 | 0.241 ± 0.0073 | 0.465 ± 0.0052
SRSVLLCFCWLC | 0.347 ± 0.011 | 0.356 ± 0.055 | 0.4492 ± 0.0017 | 0.411 ± 0.038 | 0.5256 ± 0.0042 | 0.27 ± 0.0089 | 0.264 ± 0.014 | 0.3461 ± 0.00068
LLAVIVWIVPPA | 0.304 ± 0.042 | 0.241 ± 0.01 | 0.35 ± 0.0085 | 0.233 ± 0.023 | 0.423 ± 0.0079 | 0.204 ± 0.0016 | 0.222 ± 0.028 | 0.39 ± 0.0093
YTPPISRLLIFT | 0.497 ± 0.097 | 0.528 ± 0.031 | 0.532 ± 0.0094 | 0.39 ± 0.035 | 0.564 ± 0.016 | 0.353 ± 0.019 | 0.364 ± 0.052 | 0.494 ± 0.022
VMLVISRLLLLF | 0.174 ± 0.021 | 0.465 ± 0.058 | 0.523 ± 0.0094 | 0.455 ± 0.033 | 0.613 ± 0.018 | 0.111 ± 0.0019 | 0.105 ± 0.017 | 0.168 ± 0.018
RSRRNRYSRKIA | 0.184 ± 0.013 | 0.506 ± 0.024 | 0.659 ± 0.031 | 0.696 ± 0.043 | 0.6959 ± 0.0048 | 0.0765 ± 0.034 | 0.0787 ± 0.024 | 0.141 ± 0.03
LLILIVNLRRIG | 0.281 ± 0.052 | 0.376 ± 0.0085 | 0.556 ± 0.069 | 0.36 ± 0.04 | 0.607 ± 0.028 | 0.1983 ± 0.0009 | 0.235 ± 0.011 | 0.444 ± 0.025
CDSRIRKIWSYL | 0.36 ± 0.0036 | 0.836 ± 0.069 | 0.883 ± 0.019 | 0.774 ± 0.021 | 0.834 ± 0.026 | 0.2666 ± 0.0024 | 0.284 ± 0.039 | 0.494 ± 0.0054
WVWCVCVVVWCG | 0.25425 ± 0.00016 | 0.111 ± 0.0046 | 0.191 ± 0.051 | 0.153 ± 0.026 | 0.256 ± 0.013 | 0.135 ± 0.0037 | 0.14 ± 0.02 | 0.195 ± 0.026
RARLRFASLRAF | 0.176 ± 0.01 | 0.546 ± 0.015 | 0.629 ± 0.079 | 0.64 ± 0.13 | 0.644 ± 0.029 | 0.144 ± 0.012 | 0.122 ± 0.008 | 0.217 ± 0.018
RFYLFLFFVRST | 0.175 ± 0.0048 | 0.302 ± 0.055 | 0.4403 ± 0.0022 | 0.316 ± 0.039 | 0.5488 ± 0.0049 | 0.113 ± 0.0039 | 0.11 ± 0.008 | 0.131 ± 0.012
FLIFFVCLFRWK | 0.328 ± 0.0066 | 0.185 ± 0.0059 | 0.243 ± 0.0062 | 0.231 ± 0.023 | 0.3191 ± 0.0023 | 0.21 ± 0.025 | 0.235 ± 0.029 | 0.301 ± 0.0041

Sequence | protein stability index (Saccharomyces cerevisiae [1]) | protein stability index (Saccharomyces cerevisiae [2]; [3]) | protein stability index (Saccharomyces cerevisiae [2]; [4]) | protein stability index (Saccharomyces cerevisiae [2]; [5]) | protein stability index (Saccharomyces cerevisiae [2]; [6]) | protein stability index (Saccharomyces cerevisiae [2]; [7]) | protein stability index (Saccharomyces cerevisiae [2]; [8]) | protein stability index (Saccharomyces cerevisiae [2]; [9])
FLLSFFGLVFFW | 0.397 ± 0.0048 | 0.39 ± 0.029 | 0.437 ± 0.0046 | 0.37 ± 0.018 | 0.446 ± 0.0048 | 0.397 ± 0.0073 | 0.374 ± 0.014 | 0.449 ± 0.024
GVFVVVGEASVH | 0.421 ± 0.023 | 0.546 ± 0.0025 | 0.5995 ± 0.0049 | 0.402 ± 0.023 | 0.574 ± 0.0029 | 0.389 ± 0.021 | 0.406 ± 0.017 | 0.564 ± 0.011
LCTCFLVLLLWC | 0.337 ± 0.1 | 0.387 ± 0.032 | 0.404 ± 0.02 | 0.339 ± 0.024 | 0.46 ± 0.01 | 0.34 ± 0.01 | 0.315 ± 0.018 | 0.4407 ± 0.0027
WILPASFCVVFL | 0.427 ± 0.027 | 0.502 ± 0.012 | 0.5334 ± 0.0024 | 0.385 ± 0.021 | 0.5556 ± 0.005 | 0.425 ± 0.019 | 0.397 ± 0.016 | 0.528 ± 0.032
CYFLFFLSYSLE | 0.297 ± 0.0097 | 0.237 ± 0.0066 | 0.343 ± 0.045 | 0.231 ± 0.05 | 0.455 ± 0.019 | 0.194 ± 0.039 | 0.226 ± 0.029 | 0.439 ± 0.0046
RPGRWFCFLYCV | 0.185 ± 0.005 | 0.382 ± 0.063 | 0.4311 ± 0.002 | 0.418 ± 0.022 | 0.532 ± 0.011 | 0.163 ± 0.01 | 0.141 ± 0.017 | 0.233 ± 0.0093
RSPVVVFAVLLF | 0.423 ± 0.018 | 0.438 ± 0.072 | 0.481 ± 0.034 | 0.341 ± 0.036 | 0.524 ± 0.016 | 0.35 ± 0.037 | 0.35 ± 0.029 | 0.505 ± 0.0057
LLCRVSRTRILC | 0.227 ± 0.013 | 0.478 ± 0.026 | 0.533 ± 0.0097 | 0.426 ± 0.021 | 0.58 ± 0.0099 | 0.104 ± 0.012 | 0.128 ± 0.013 | 0.166 ± 0.022
RGWNGFWVVVVW | 0.307 ± 0.0078 | 0.216 ± 0.015 | 0.305 ± 0.03 | 0.239 ± 0.039 | 0.4155 ± 0.0011 | 0.213 ± 0.0046 | 0.227 ± 0.035 | 0.368 ± 0.032
PRFCVYARFHNT | 0.387 ± 0.022 | 0.713 ± 0.016 | 0.748 ± 0.01 | 0.649 ± 0.036 | 0.722 ± 0.054 | 0.298 ± 0.023 | 0.375 ± 0.033 | 0.567 ± 0.02
RARFMLGVLLST | 0.451 ± 0.021 | 0.5525 ± 0.0044 | 0.617 ± 0.033 | 0.487 ± 0.028 | 0.5834 ± 0.0054 | 0.314 ± 0.0056 | 0.352 ± 0.024 | 0.49366 ± 3e-05
WCGSWGVWMRLG | 0.122 ± 0.031 | 0.296 ± 0.08 | 0.456 ± 0.015 | 0.534 ± 0.03 | 0.646 ± 0.02 | 0.0974 ± 0.008 | 0.0842 ± 0.0092 | 0.112 ± 0.029
FAKRVARVAREH | 0.33 ± 0.021 | 0.677 ± 0.052 | 0.725 ± 0.018 | 0.6452 ± 0.0051 | 0.726 ± 0.012 | 0.17 ± 0.024 | 0.219 ± 0.0058 | 0.383 ± 0.014
TCVTLRYRLTFE | 0.508 ± 0.11 | 0.638 ± 0.11 | 0.666 ± 0.027 | 0.564 ± 0.022 | 0.667 ± 0.043 | 0.585 ± 0.04 | 0.522 ± 0.025 | 0.621 ± 0.02
GFGRDHGNDTGP | 0.721 ± 0.0055 | 0.712 ± 0.017 | 0.7331 ± 0.0021 | 0.6497 ± 0.0025 | 0.75 ± 0.0082 | 0.645 ± 0.021 | 0.648 ± 0.02 | 0.725 ± 0.0097
ICFPLQIFRILV | 0.3549 ± 0.0027 | 0.408 ± 0.013 | 0.46 ± 0.019 | 0.348 ± 0.021 | 0.4919 ± 0.0042 | 0.211 ± 0.014 | 0.246 ± 0.019 | 0.345 ± 0.006
WGVVMVCVVFGL | 0.3249 ± 0.0027 | 0.116 ± 0.019 | 0.247 ± 0.016 | 0.186 ± 0.028 | 0.312 ± 0.0044 | 0.159 ± 0.011 | 0.183 ± 0.019 | 0.252 ± 0.027
CACAVPFLLLFF | 0.411 ± 0.025 | 0.474 ± 0.0077 | 0.519 ± 0.017 | 0.374 ± 0.022 | 0.505 ± 0.0063 | 0.497 ± 0.028 | 0.347 ± 0.032 | 0.494 ± 0.023
RWCLWGTRVWVS | 0.147 ± 0.028 | 0.439 ± 0.04 | 0.522 ± 0.037 | 0.444 ± 0.021 | 0.591 ± 0.029 | 0.103 ± 0.0031 | 0.111 ± 0.022 | 0.153 ± 0.03
